According to patent US20100184658A1 (published 2010):

Columns and labels:
Assay in all cases: cell-based or functional assay
[1] = target: RPS6KB1 (p70S6K) Ribosomal protein S6 kinase, 70 kDa, polypeptide 1 (human (printed as (h)), UniProt P23443 1-421, limits assumed)
[2] = target: MAP2K2 (MEK2) Mitogen-activated protein kinase kinase 2 (UniProt P36507 1-400, limits assumed)
[3] = target: T1, SGK2 Serum/glucocorticoid regulated kinase 2 (UniProt Q9HBY8 1-367, limits assumed)
T1 sequence (looked up): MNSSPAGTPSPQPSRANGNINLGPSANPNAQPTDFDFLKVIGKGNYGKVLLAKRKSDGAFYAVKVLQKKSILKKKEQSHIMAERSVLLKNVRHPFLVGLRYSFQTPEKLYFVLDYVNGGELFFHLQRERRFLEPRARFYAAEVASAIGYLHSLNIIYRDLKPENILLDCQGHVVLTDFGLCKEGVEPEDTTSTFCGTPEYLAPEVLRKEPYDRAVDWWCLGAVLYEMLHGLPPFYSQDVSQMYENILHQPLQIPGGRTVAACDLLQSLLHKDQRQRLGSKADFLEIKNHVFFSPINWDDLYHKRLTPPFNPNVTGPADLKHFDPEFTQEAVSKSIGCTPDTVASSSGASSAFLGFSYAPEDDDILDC

[4] = target: T2, SGKL (SGK3) Serum/glucocorticoid regulated kinase family, member 3 (UniProt Q96BR1 1-496, limits assumed)
T2 sequence (looked up): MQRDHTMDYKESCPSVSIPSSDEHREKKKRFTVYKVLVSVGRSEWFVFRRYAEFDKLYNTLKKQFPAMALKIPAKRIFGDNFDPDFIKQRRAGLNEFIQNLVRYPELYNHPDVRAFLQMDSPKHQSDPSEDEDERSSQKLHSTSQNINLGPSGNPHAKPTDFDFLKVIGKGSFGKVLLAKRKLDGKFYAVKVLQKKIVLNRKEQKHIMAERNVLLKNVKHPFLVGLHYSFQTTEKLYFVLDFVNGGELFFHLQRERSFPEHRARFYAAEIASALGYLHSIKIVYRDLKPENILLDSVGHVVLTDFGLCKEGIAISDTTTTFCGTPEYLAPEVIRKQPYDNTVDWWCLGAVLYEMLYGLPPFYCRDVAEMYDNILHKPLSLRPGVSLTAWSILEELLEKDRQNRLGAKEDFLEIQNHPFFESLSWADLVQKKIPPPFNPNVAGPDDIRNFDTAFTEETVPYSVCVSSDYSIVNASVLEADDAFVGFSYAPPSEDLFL

[5] = target: T3, PRKD2 (PKD2) Protein kinase D2 (UniProt Q9BZL6 1-878, limits assumed)
T3 sequence (looked up): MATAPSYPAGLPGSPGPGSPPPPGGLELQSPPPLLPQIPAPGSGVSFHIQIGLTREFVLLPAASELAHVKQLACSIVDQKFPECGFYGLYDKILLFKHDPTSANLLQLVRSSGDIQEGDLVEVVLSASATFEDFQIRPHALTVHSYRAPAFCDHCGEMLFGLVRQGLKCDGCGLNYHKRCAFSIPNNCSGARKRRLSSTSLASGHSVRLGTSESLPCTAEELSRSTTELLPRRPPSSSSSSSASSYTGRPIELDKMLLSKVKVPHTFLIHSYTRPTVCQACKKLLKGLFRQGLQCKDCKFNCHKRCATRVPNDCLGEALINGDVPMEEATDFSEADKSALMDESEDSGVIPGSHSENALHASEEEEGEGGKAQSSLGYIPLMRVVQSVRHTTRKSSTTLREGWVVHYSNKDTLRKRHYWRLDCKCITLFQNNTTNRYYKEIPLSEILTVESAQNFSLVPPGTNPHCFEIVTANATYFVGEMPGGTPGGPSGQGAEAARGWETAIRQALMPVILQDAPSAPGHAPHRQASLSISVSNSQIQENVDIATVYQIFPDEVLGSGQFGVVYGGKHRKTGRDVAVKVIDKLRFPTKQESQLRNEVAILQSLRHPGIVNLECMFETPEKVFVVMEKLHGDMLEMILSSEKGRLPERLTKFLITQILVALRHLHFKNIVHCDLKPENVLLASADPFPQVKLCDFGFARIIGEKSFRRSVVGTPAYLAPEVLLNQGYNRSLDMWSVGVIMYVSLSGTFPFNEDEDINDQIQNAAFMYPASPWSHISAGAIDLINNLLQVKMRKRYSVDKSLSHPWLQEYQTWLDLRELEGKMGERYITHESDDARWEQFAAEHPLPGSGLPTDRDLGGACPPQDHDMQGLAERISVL

[6] = target: T4, TYK2 (UniProt P29597 871-1187, limits assumed)
T4 sequence (looked up): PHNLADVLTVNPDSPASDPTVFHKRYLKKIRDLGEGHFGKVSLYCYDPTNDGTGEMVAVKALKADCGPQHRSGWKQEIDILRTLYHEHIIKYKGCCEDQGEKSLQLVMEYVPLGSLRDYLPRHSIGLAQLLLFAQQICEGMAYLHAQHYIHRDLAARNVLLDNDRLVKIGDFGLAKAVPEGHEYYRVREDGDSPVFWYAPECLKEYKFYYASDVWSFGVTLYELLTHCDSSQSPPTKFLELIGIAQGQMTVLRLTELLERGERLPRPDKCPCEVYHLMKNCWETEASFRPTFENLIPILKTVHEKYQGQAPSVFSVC

[7] = target: ABL1 T315I (UniProt P00519 1-1130, limits assumed)
[8] = target: MYLK2 (skMLCK) (UniProt Q9H1R3 1-596, limits assumed)
[9] = target: PHKG1 (UniProt Q16816 1-387, limits assumed)
Also: test concentration or dose not given here.

PHKG1, sequence (Q16816 whole entry): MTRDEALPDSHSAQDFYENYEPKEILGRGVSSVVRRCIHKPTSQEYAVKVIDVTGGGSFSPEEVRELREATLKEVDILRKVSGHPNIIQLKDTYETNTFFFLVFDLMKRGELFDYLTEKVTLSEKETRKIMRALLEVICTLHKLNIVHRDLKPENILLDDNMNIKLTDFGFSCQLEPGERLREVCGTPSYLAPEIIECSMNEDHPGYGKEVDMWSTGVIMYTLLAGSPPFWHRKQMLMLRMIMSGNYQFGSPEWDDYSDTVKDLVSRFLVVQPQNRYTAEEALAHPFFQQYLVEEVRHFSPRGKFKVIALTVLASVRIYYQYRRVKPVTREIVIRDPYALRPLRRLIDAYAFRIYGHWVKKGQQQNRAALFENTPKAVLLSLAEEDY
MYLK2 (skMLCK), sequence (Q9H1R3 whole entry): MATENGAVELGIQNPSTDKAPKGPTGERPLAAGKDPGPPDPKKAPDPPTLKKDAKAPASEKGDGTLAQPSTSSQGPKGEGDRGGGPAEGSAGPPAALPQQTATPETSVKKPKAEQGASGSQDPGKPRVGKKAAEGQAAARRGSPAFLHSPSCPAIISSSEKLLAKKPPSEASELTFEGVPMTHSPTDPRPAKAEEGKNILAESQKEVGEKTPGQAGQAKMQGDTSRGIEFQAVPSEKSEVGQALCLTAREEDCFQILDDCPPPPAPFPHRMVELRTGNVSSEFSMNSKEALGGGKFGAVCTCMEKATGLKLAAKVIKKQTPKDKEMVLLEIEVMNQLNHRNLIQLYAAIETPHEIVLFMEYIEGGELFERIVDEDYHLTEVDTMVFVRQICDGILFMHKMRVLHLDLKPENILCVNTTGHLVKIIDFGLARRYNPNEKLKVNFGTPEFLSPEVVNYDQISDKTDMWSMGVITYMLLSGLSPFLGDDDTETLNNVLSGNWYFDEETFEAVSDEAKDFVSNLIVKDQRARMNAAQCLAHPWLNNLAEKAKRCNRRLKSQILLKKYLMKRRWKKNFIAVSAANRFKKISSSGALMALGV
RPS6KB1 (p70S6K) Ribosomal protein S6 kinase, 70 kDa, polypeptide 1 (human (printed as (h)), UniProt P23443 1-421, limits assumed), sequence (P23443 1-421 limits assumed): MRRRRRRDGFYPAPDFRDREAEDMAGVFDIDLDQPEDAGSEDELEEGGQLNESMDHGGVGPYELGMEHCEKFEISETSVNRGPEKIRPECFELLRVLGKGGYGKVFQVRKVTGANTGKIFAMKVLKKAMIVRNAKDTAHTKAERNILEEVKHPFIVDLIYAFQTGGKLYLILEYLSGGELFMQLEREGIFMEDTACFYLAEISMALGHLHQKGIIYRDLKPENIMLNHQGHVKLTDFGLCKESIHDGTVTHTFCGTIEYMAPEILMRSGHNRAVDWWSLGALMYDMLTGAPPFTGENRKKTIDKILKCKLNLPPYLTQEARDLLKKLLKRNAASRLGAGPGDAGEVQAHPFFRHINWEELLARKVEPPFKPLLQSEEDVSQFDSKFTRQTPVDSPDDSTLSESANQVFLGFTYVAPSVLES
ABL1 T315I, sequence (P00519 whole entry T315I): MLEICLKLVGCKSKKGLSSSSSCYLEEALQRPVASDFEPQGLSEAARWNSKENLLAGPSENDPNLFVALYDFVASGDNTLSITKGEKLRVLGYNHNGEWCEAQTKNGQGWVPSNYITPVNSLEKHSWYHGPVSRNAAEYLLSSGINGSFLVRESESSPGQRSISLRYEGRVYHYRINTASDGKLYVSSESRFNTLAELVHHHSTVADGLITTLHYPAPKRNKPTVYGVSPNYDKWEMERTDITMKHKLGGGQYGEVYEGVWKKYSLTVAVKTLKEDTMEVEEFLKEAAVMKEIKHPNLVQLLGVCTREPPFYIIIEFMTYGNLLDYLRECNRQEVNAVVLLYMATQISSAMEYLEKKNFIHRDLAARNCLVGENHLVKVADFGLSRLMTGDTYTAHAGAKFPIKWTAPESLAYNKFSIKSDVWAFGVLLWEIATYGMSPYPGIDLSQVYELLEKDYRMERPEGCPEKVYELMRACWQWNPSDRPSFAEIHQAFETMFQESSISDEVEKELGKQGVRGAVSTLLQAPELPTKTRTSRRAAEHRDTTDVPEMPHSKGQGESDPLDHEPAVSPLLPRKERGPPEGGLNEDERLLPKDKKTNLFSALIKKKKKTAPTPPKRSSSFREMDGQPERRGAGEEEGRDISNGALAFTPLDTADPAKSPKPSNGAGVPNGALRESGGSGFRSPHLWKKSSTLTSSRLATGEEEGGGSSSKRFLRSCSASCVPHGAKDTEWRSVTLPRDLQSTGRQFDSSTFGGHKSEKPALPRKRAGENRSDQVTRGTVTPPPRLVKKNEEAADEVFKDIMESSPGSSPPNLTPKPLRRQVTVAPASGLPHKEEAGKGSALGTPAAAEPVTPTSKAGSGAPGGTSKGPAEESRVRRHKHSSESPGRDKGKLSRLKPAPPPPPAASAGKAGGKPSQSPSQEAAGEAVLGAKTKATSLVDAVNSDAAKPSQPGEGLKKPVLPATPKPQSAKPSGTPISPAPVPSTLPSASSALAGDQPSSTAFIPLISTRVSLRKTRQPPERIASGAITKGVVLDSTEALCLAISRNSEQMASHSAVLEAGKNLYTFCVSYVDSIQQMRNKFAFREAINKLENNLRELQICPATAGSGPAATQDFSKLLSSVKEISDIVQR

SGRPPMIVWFNRPFLIAVSHTHGQTILFMAKVINPVGA [D3 peptide]
% Inhibition mean [1]: 100%
% Inhibition mean [2]: 105%
% Inhibition mean [3]: 102%
% Inhibition mean [4]: 97%
% Inhibition mean [5]: 92.5%
% Inhibition mean [6]: 70.5%
% Inhibition mean [7]: 69.8%
% Inhibition mean [8]: 64.6%
% Inhibition mean [9]: 54.8%
